# Results published in publication PMC10318465, “A heme pocket aromatic quadrupole modulates gas binding to cytochrome c′-β: Implications for NO sensors” (The Journal of Biological Chemistry, 2023).
# Residue numbers refer to the chain shown, from its start. Names may count otherwise.
# B1: V68T: V68T variant of pig myoglobin (Mb) (protein, UniProt P02189 2-154, looked up, variant V68T)
# Myoglobin: GLSDGEWQLVLNVWGKVEADVAGHGQEVLIRLFKGHPETLEKFDKFKHLKSEDEMKASEDLKKHGNTTLTALGGILKKKGHHEAELTPLAQSHATKHKIPVKYLEFISEAIIQVLQSKHPGDFGADAQGAMSKALELFRNDMAAKYKELGFQG
# B2: Mb pig (wt): wild-type pig myoglobin (protein, UniProt P02189 2-154, looked up)
# Myoglobin: B1 Myoglobin with T68V
# B3: H64V, V68T: H64V/V68T Mb double variant (protein, UniProt P02189 2-154, looked up, variant H64V V68T)
# Myoglobin: B1 Myoglobin with H64V
# Legend:
# His123 = His123 (UniProt position 143, GCFGCHAAQKE); assay: UV-vis; details: 1x MHTCP cocktail buffer (5x stock: 500 mM CAPS, 250 mM Mes, 250 mM Hepes, 250 mM Pipes, 250 mM TAPS), sodium dithionite, excess PROLI NONOate, Ferrous heme-nitrosyl Fe(II)NO complex, 5 uM protein, equilibrium between 5cNO (His 123 dissociated) and 6cNO (His 123 bound)
# [1] = 6cNO; ref AxCP-α [9],[56]; L16A [9],[10]; Mb pig wt and V68T [57]; sGC [17],[58]; Ns H-NOX [16]; cited from earlier work
# [2] = set-up: method as in earlier work; details: 6cCO, ref AxCP-α [9],[56], L16A [9],[10], Mb pig wt and V68T [57], H64V,V68T [25], sGC [17],[58], Ns H-NOX [16], cited from earlier work; for Kd: read-out: Kd(CO)
# [3] = Literature kinetic parameters of six-coordinate Fe(II)CO complexes of selected heme proteins; type: binding; details: from literature koff(CO) values of Table 4
molecule,measurement,setting,value
Cytochrome c'-beta (McCP-beta) (Methylococcus capsulatus (Bath)),pKa,His123,7.17 ± 0.03
B1,kon(NO),[1],4.9e+06 M⁻¹ s⁻¹
same,koff(CO),[2],0.079 s⁻¹
same,kon(CO),[2],610000 M⁻¹ s⁻¹
same,Kd,[2],130 nM
same,increase of koff(CO) relative to wt Mb,[3],~4 fold
B2,kon(NO),[1],1.7e+07 M⁻¹ s⁻¹
same,koff(CO),[2],0.019 s⁻¹
same,kon(CO),[2],780000 M⁻¹ s⁻¹
same,Kd,[2],24 nM
B3,koff(CO),[2],0.063 s⁻¹
same,kon(CO),[2],2.7e+07 M⁻¹ s⁻¹
same,Kd,[2],2.3 nM
same,increase of koff(CO) relative to wt Mb,[3],~3 fold
